Measured values published in the supplement of paper PMC7877785.
± gives the uncertainty stated by the source.

Assay: self-splicing fitness, log relative to wild type (ln ratio); higher = more splicing; Tetrahymena group I intron in knt gene, E. coli kanamycin selection, DiMSum; sequences stand for … in CUCUCU…GGAGGGAAAAGUUAUCAGGCAUGCACCUGGUAGCUAGUCUUUAAACCAAUAGAUUGCAUCGGUUUAAAAGGCAAGACCGUCAAAUUGCGGGAAAGGGGUCAACAGCCGUUCAGUACCAAGUCUCAGGGGAAACUUUGAGAUGGCCUUGCAAAGGGUAUGGUAAUAAGCUGACGGACAUGGUCCUAACCACGCAGCCAAGUCCUAAGUCAACAGAUCUUCUGUUGAUAUGGAUGCAGUUCACAGACUAAAUGUCGGUCGGGGAAGAUGUAUUCUUCUCAUAAGAUAUAGUCGGACCUCUCCUUAAUGGGAGCUAGCGGAUGAAGUGAUGCAACACUGGAGCCGCUGGGAACUAAUUUGUAUGCGAAAGUAUAUUGAUUAGUUUUGGAGUACUCGUGGUCG
Method in brief: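 The eight P1ex-region nucleotides of an intron in the knt kanamycin-resistance gene on pET-22b(+) were all randomised and the library put into E. coli BL21(DE3). Six replicate transformations were grown overnight at 37°C or 30°C on LB agar with or without 25 μg/mL kanamycin, together with 100 μg/mL carbenicillin, 50 μM IPTG and 0.2% rhamnose. Colonies were pooled and amplicon-sequenced on an Illumina HiSeq 2500. Fitness from DiMSum is the error-weighted combination of wild-type-normalised replicate fold changes, kanamycin over none.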

Row | Sequence | self-splicing fitness (ln) (30 °C) | self-splicing fitness (ln) (37 °C)
1 | CAUCAGCAAUAUUACGAUAA | -1.46 ± 0.092 | -0.079 ± 0.088
2 | CAUCAGCAAUAUUACGAUAC | -2.95 ± 0.16 | -1.75 ± 0.16
3 | CAUCAGCAAUAUUACGCAAA | -2.39 ± 0.15 | -2.48 ± 0.21
4 | CAUCAGCAAUAUUACGGAGA | -1.78 ± 0.14 | -1.3 ± 0.12
5 | CAUCAGCAAUAUUACGGAGU | -2.65 ± 0.12 | -0.842 ± 0.11
6 | CAUCAGCAAUAUUACGGAUC | -1.79 ± 0.088 | 0.216 ± 0.11
7 | CAUCAGCAAUAUUACGGCAA | -3.37 ± 0.21 | -2.1 ± 0.2
8 | CAUCAGCAAUAUUACGGGAG | -0.766 ± 0.054 | -0.2 ± 0.075
9 | CAUCAGCAAUAUUACGGUAU | -2.95 ± 0.13 | -1.13 ± 0.14
10 | CAUCAGCAAUAUUACGUAUA | -1.68 ± 0.095 | -0.354 ± 0.11
11 | CAUCAGCAAUAUUACGUCAU | -3.06 ± 0.1 | -1.78 ± 0.12
12 | CAUCAGCAAUAUUACGUCUC | -3.16 ± 0.19 | -1.75 ± 0.17
13 | CAUCAGCAAUAUUACGUGUG | -2.72 ± 0.092 | -1.38 ± 0.08
14 | CAUCAGCAAUAUUACGUUAU | -3.34 ± 0.12 | -2.02 ± 0.11
15 | CAUCAGCAAUAUUACGUUGG | -1.58 ± 0.059 | -0.639 ± 0.067
16 | CAUGAGCAAUAUUACGACCG | -0.701 ± 0.12 | 0.276 ± 0.14
17 | CAUGAGCAAUAUUACGACGA | -2.3 ± 0.3 | -1.85 ± 0.21
18 | CAUGAGCAAUAUUACGAGCG | -0.045 ± 0.092 | 0.443 ± 0.11
19 | CAUGAGCAAUAUUACGAUGA | -3.5 ± 0.2 | -2.48 ± 0.15
20 | CAUGAGCAAUAUUACGAUGG | -1.36 ± 0.1 | -0.83 ± 0.13
21 | CAUGAGCAAUAUUACGAUGU | -2.32 ± 0.19 | -2.72 ± 0.36
22 | CAUGAGCAAUAUUACGGGGA | -3.14 ± 0.19 | -3.03 ± 0.22
23 | CAUGAGCAAUAUUACGGGGC | -4.13 ± 0.43 | -2.35 ± 0.34
24 | CAUGAGCAAUAUUACGGUCA | -2.96 ± 0.2 | -2.57 ± 0.22
25 | CAUGAGCAAUAUUACGGUCU | -3.11 ± 0.28 | -1.2 ± 0.18

Row | Sequence | self-splicing fitness (ln) (30 °C) | self-splicing fitness (ln) (37 °C)
26 | CAUGAGCAAUAUUACGUCAA | -4.04 ± 0.33 | -2.64 ± 0.33
27 | CAUGAGCAAUAUUACGUUAA | -3.17 ± 0.32 | -2.29 ± 0.26
28 | CAUUAGCAAUAUUACGAAGC | -2.81 ± 0.32 | -2.44 ± 0.49
29 | CAUUAGCAAUAUUACGACAG | 0.268 ± 0.06 | 0.168 ± 0.071
30 | CAUUAGCAAUAUUACGAGGA | -2.75 ± 0.35 | 
31 | CAUUAGCAAUAUUACGAGUC |  | -1.48 ± 0.37
32 | CAUUAGCAAUAUUACGCAAA |  | -2.25 ± 0.32
33 | CAUUAGCAAUAUUACGCACA | -1.01 ± 0.16 | -0.408 ± 0.13
34 | CAUUAGCAAUAUUACGCACG | -0.832 ± 0.12 | 0.325 ± 0.14
35 | CAUUAGCAAUAUUACGCAUU | -3.32 ± 0.15 | -1.62 ± 0.094
36 | CAUUAGCAAUAUUACGCGAA | -2.65 ± 0.19 | -1.17 ± 0.19
37 | CAUUAGCAAUAUUACGCGGU | -2.75 ± 0.33 | -2.05 ± 0.42
38 | CAUUAGCAAUAUUACGCGUA | -1.76 ± 0.22 | -1.2 ± 0.18
39 | CAUUAGCAAUAUUACGCUGA | -3.13 ± 0.24 | -1.96 ± 0.26
40 | CAUUAGCAAUAUUACGCUUG | -2.46 ± 0.2 | -2.6 ± 0.2
41 | CAUUAGCAAUAUUACGGAAC |  | -0.879 ± 0.24
42 | CAUUAGCAAUAUUACGGACU | -2.75 ± 0.28 | -1.89 ± 0.23
43 | CAUUAGCAAUAUUACGGCAA | -2 ± 0.22 | -3.22 ± 0.47
44 | CAUUAGCAAUAUUACGGCUG | 0.0732 ± 0.078 | 0.0962 ± 0.088
45 | CAUUAGCAAUAUUACGGGGA | -2.73 ± 0.21 | -1.77 ± 0.26
46 | CAUUAGCAAUAUUACGGGUC | -3.51 ± 0.29 | -1.5 ± 0.23
47 | CAUUAGCAAUAUUACGGGUG | -3.18 ± 0.16 | -1.57 ± 0.14
48 | CAUUAGCAAUAUUACGGUGG | -0.719 ± 0.066 | 0.024 ± 0.093
49 | CAUUAGCAAUAUUACGUAAC | -3.01 ± 0.26 | -2.14 ± 0.25
